Test [1] deals with T1, recombinant extracellular domain of human ErbB-2 tagged with the FLAG epitope (human, UniProt P04626 23-652).
T1 construct: extracellular domain; Expressed in HEK-293 cells, purified on anti-FLAG M2; Biotinylated for biopanning; also called ErbB-2-ECD; ErbB2-ECD
Nature of the test: four rounds of phage display affinity selection on biotinylated ErbB-2-ECD held on streptavidin plates. The procedure: Biotinylated antigen was incubated with streptavidin coated plates for 2 hours at 4° C. In first and second round of selection 10 μg of biotinylated antigen per plate was added, in third round amount of antigen was decreased to 1 μg, and for fourth round of selection 0.1 μg of antigen was used. Unoccupied biotin-binding sites were blocked with 0.1 mM biotin. Phage was incubated with antigen for 4 hrs at RT. Plates were washed 10 times with TPBS to remove unbound phage. Bound phage was eluted with elution buffer (0.1 M HCl, pH is adjusted to 2.2 with glycine, 1 mg/ml BSA, 0.1 mg/ml phenol red) at RT during 10 min. […] After each round, except the last, the eluate of the bound phage was propagated and used as input for the next round. Individual clones were characterized by DNA sequencing after the fourth round of selection.
A random 6-amino acid peptide bacteriophage display library was affinity selected against the ErbB-2-ECD to identify novel peptide-ligands.

The target in test [2] is T1, recombinant extracellular domain of …. Kind of test: quenching of intrinsic tryptophan fluorescence of soluble ErbB-2-ECD titrated with peptide, 1:1 model, global fit of three protein concentrations.
Method: The titrations were performed at 25° C. with varying amounts of peptide added to a fixed ErbB-2-ECD concentration (200-600 nM) in 2 ml of phosphate buffered saline (pH=7.4). Each measurement was collected for 5-20 sec after 1-2 min pre-equilibration. The excitation shutter remained closed during pre-equilibration of the sample and was opened only during data acquisition in order to minimize photobleaching of the sample. The fluorescence measurements were corrected for dilutions and photobleaching of ErbB-2-ECD. Values reported are an average of three independent measurements. […] The fitting procedure was performed using Origin (Microcal Software Inc).
Intrinsic tryptophan fluorescence of the protein was monitored as a function of peptide concentration. […] In the analysis, the inventors assumed a model with the stoichiometric ratio of protein to peptide equal to 1:1. The data were collected at 2 μM, 4 μM and 6 μM concentrations of the protein.
A further test addresses T2, bovine asialofetuin (bovine, UniProt P12763 19-359, desialylated glycoprotein).
T2 construct: Control protein spotted on nitrocellulose; also called ASF; AF
T2 sequence (looked up): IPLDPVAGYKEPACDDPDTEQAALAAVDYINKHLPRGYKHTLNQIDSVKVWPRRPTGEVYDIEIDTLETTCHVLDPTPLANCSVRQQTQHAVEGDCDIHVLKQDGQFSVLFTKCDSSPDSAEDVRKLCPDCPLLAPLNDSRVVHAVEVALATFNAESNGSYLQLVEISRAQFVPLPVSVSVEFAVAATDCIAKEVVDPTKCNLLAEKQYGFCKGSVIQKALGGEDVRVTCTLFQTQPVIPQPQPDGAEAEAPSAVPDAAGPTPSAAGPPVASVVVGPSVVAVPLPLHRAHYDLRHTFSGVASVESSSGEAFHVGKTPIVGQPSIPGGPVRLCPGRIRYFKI
Nature of the test: immunoblot (dot blot) on nitrocellulose, streptavidin-alkaline phosphatase. In general terms: Immunoblotting shows a protein as a band on a membrane.

The next test concerns the target T3, bovine serum albumin (bovine, UniProt P02769 25-607).
T3 construct: Control protein spotted on nitrocellulose; also called BSA
The test is described as above.

Ends that are not written are not given here.

T3 sequence (P02769 25-607 limits assumed): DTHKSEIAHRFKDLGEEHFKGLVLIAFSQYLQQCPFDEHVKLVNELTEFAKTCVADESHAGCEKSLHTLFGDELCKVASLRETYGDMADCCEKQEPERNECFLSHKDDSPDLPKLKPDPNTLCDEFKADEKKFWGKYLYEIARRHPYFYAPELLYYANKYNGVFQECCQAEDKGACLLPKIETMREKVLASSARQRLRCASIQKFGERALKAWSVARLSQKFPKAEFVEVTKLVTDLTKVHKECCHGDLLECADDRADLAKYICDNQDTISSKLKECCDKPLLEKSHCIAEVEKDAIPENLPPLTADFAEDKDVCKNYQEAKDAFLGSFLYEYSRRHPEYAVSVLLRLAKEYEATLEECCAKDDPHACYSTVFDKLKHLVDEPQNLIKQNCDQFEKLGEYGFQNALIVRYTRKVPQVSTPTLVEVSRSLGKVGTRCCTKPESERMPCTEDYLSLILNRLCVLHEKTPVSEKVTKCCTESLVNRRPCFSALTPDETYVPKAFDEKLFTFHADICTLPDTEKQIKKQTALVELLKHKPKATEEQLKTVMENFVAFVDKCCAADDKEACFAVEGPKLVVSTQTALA
Method for bovine asialofetuin: (§1) After washing three times with PBS, the membrane was incubated with 100 μM biotinylated peptide for 2 hrs at RT.
Method for bovine serum albumin: as §1

B1: phage-displayed p6.3 peptide WYSWLL (peptide)
chain: WYSWLL
notes: Only seen as phage clone; not synthesized; not shown: minor coat protein pIII of the fUSE5 (M13/fd type) bacteriophage vector; peptide inserted near the N-terminus of mature
Regarding B1, the binding result in test [1] is on record as “binds”.

B2: synthetic p6.1 peptide KCCYSL (peptide)
peptide: KCCYSL
modifications: not fully specified (bridges); also: present as oxidized and reduced monomer
notes: Chemically synthesized, not biotinylated; used in the fluorescence titration
Usually Kd stands for the free concentration of one partner at which half of the binding sites on the other are occupied at equilibrium, for simple one-to-one binding. In the case of B2, the Kd in test [2] worked out at 30.2 µM.

B3: phage-displayed p6.1 peptide KCCYSL (peptide)
chain: KCCYSL
modifications: also: C2-C3 disulfide in the oxidized monomer fraction
notes: Insert of the phage clones selected from the 6-mer library F3-6; not shown: minor coat protein pIII of the fUSE5 (M13/fd type) bacteriophage vector; peptide inserted near the N-terminus of mature
Turning to B3, in test [1], the binding result was “binds”.

B4: phage-displayed p6.2 peptide WYAWML (peptide)
chain: WYAWML
notes: as for B1
As to B4, the binding result in test [1] is reported as “binds”.

B5: biotinylated synthetic p6.1 peptide (peptide)
peptide: KCCYSL
modifications: cysteine pairing not given here; also: biotin label, position not given here
notes: Biotinylated analog of KCCYSL used in immunoblot, ELISA and cell staining; also called biotinylated p6.1
Consider B5, for which the binding result with bovine asialofetuin and with bovine serum albumin was “no binding” throughout.

(Values after US20150335768A1 (CURATORS OF THE UNIVERSITY OF MISSOURI, published 2015).)
